Laboratory results: article PMC6215540, “Kinetic characterization of acetone monooxygenase from Gordonia sp. strain TY-5” (AMB Express, 2018)

How the values were obtained:
CC(=O)Cc1ccccc1 = assay: purified protein; assay type: biochemical, Gordonia sp. TY-5; conditions: 100 µM NADPH, air-saturated 50 mM HEPES pH 7.5, 25 °C
GSTACMO [1] = biological target: T1, GSTACMO (Gordonia sp. TY-5, UniProt A1IHE6); assay: stopped-flow flavin reduction at […] nm, hyperbolic fit of kobs; assay type: biochemical; conditions: 50 mM HEPES pH 7.5, 20% glycerol, 25 °C, anaerobic; oxidized enzyme; text b56 prints 121; table labels it ACMO, done on GSTACMO; read-out: Measured values
T1 construct: gene acmA; full-length with N-terminal GST tag kept (pGEX4T1), E. coli DH5alpha

ACMO [2] = biological target: T2, ACMO (Gordonia sp. TY-5, UniProt A1IHE6); assay: NADPH oxidation at […] nm, competitive inhibition fit; assay type: biochemical; conditions: read-out: Measured values
T2 construct: gene acmA; full-length, codon-optimised gene in pGEX4T1, E. coli DH5alpha; N-terminal GST removed with thrombin; calculated mass 59,780 Da

GSTACMO [3] = biological target: T1, GSTACMO; assay: flavin absorbance titration at […] nm, quadratic fit; assay type: binding
ACMO [4] = biological target: T3, ACMO (Gordonia sp. TY-5, UniProt A1IHE6, H325K); assay: NADPH oxidation at […] nm, competitive inhibition fit; assay type: biochemical; conditions: read-out: Measured values
T3 construct: gene acmA; full-length, codon-optimised gene in pGEX4T1, E. coli DH5alpha; N-terminal GST removed with thrombin; calculated mass 59,780 Da

GSTACMO [5] = biological target: T4, GSTACMO (Gordonia sp. TY-5, UniProt A1IHE6, H325K); assay: flavin absorbance titration at […] nm, quadratic fit; assay type: binding
T4 construct: gene acmA; full-length with N-terminal GST tag kept (pGEX4T1), E. coli DH5alpha

purified protein [6] = substrate: CC(=O)C(C)C; assay: purified protein; assay type: biochemical, Gordonia sp. TY-5; conditions: 100 µM NADPH, air-saturated 50 mM HEPES pH 7.5, 25 °C
purified protein [7] = substrate: CC(C)=O; assay: purified protein; assay type: biochemical, Gordonia sp. TY-5; conditions: 100 µM NADPH, air-saturated 50 mM HEPES pH 7.5, 25 °C
purified protein [8] = substrate: CC(C)C(=O)C(C)C; assay: purified protein; assay type: biochemical, Gordonia sp. TY-5; conditions: 100 µM NADPH, air-saturated 50 mM HEPES pH 7.5, 25 °C
purified protein [9] = substrate: CCC(C)=O; assay: purified protein; assay type: biochemical, Gordonia sp. TY-5; conditions: 100 µM NADPH
purified protein [10] = substrate: CCCC(C)=O; assay: purified protein; assay type: biochemical, Gordonia sp. TY-5; conditions: 100 µM NADPH, air-saturated 50 mM HEPES pH 7.5, 25 °C
purified protein [11] = substrate: CCCCCC(C)=O; assay: purified protein; assay type: biochemical, Gordonia sp. TY-5; conditions: 100 µM NADPH, air-saturated 50 mM HEPES pH 7.5, 25 °C
purified protein [12] = substrate: NC(=O)C1=CN([C@@H]2O[C@H](COP(=O)(O)OP(=O)(O)OC[C@H]3O[C@@H](n4cnc5c(N)ncnc54)[C@H](OP(=O)(O)O)[C@@H]3O)[C@@H](O)[C@H]2O)C=CC1; assay: purified protein; assay type: biochemical, Gordonia sp. TY-5; conditions: 200 μM butanone
purified protein [13] = substrate: O=C1CC2C=CCC12; assay: purified protein; assay type: biochemical, Gordonia sp. TY-5; conditions: 100 µM NADPH, air-saturated 50 mM HEPES pH 7.5, 25 °C
purified protein [14] = substrate: O=C1CCC1; assay: purified protein; assay type: biochemical, Gordonia sp. TY-5; conditions: 100 µM NADPH, air-saturated 50 mM HEPES pH 7.5, 25 °C
purified protein [15] = substrate: O=C1CCCC1; assay: purified protein; assay type: biochemical, Gordonia sp. TY-5; conditions: 100 µM NADPH, air-saturated 50 mM HEPES pH 7.5, 25 °C
purified protein [16] = substrate: O=C1CCCCC1; assay: purified protein; assay type: biochemical, Gordonia sp. TY-5; conditions: 100 µM NADPH, air-saturated 50 mM HEPES pH 7.5, 25 °C
[17] = air-saturated 50 mM HEPES pH 7.5, 25 °C
[18] = 50 mM HEPES pH 7.5, 25 °C, GST tag state not told, table row identical to the NADPH row, possible duplication
[19] = 50 mM HEPES pH 7.5, 25 °C, GST tag state not told, table row identical to the butanone row, possible duplication

ACMO (Gordonia sp. TY-5)
Km (CC(=O)Cc1ccccc1): 8.9 ± 1.5 µM | kcat (CC(=O)Cc1ccccc1): 1 ± 0.1 s⁻¹ | kcat/Km (CC(=O)Cc1ccccc1): 112000 ± 20000 M⁻¹ s⁻¹

NC(=O)C1=CN([C@@H]2O[C@H](COP(=O)(O)OP(=O)(O)OC[C@H]3O[C@@H](n4cnc5c(N)ncnc54)[C@H](OP(=O)(O)O)[C@@H]3O)[C@@H](O)[C@H]2O)C=CC1 [NADPH]
Kd (GSTACMO [1]): 120 ± 14 µM

NC(=O)c1ccc[n+]([C@@H]2O[C@H](COP(=O)(O)OP(=O)(O)OC[C@H]3O[C@@H](n4cnc5c(N)ncnc54)[C@H](OP(=O)(O)O)[C@@H]3O)[C@@H](O)[C@H]2O)c1 [NADP^+]
Ki (ACMO [2]): 166 ± 13 µM | Kd (GSTACMO [3]): 21.1 ± 4.1 µM | Ki (ACMO [4]): 27 ± 6 µM | Kd (GSTACMO [5]): 0.5 ± 0.04 µM

B1: ACMO (Gordonia sp. TY-5) (protein)
chain: MSTTTLDAAVIGTGVAGLYELHMLREQGLEVRAYDKASGVGGTWYWNRYPGARFDSEAYIYQYLFDEDLYKGWSWSQRFPGQEEIERWLNYVADSLDLRRDISLETEITSAVFDEDRNRWTLTTADGDTIDAQFLITCCGMLSAPMKDLFPGQSDFGGQLVHTARWPKEGIDFAGKRVGVIGNGATGIQVIQSIAADVDELKVFIRTPQYALPMKNPSYGPDEVAWYKSRFGELKDTLPHTFTGFEYDFTDAWEDLTPEQRRARLEDDYENGSLKLWLASFAEIFSDEQVSEEVSEFVREKMRARLVDPELCDLLIPSDYGFGTHRVPLETNYLEVYHRDNVTAVLVRDNPITRIRENGIELADGTVHELDVIIMATGFDAGTGALTRIDIRGRDGRTLADDWSRDIRTTMGLMVHGYPNMLTTAVPLAPSAALCNMTTCLQQQTEWISEAIRHLRATGKTVIEPTAEGEEAWVAHHDELADANLISKTNSWYVGSNVPGKPRRVLSYVGGVGAYRDATLEAAAAGYKGFALS
notes: full-length, codon-optimised gene in pGEX4T1, E. coli DH5alpha; N-terminal GST removed with thrombin; calculated mass 59,780 Da
Km (purified protein [6]): 4.4 ± 0.5 µM | kcat (purified protein [6]): 2.2 ± 0.1 s⁻¹ | kcat/Km (purified protein [6]): 510000 ± 55000 M⁻¹ s⁻¹ | Km (purified protein [7]): 170 ± 11 µM | kcat (purified protein [7]): 1.4 ± 0.2 s⁻¹ | kcat/Km (purified protein [7]): 8500 ± 590 M⁻¹ s⁻¹ | Km (purified protein [8]): 1500 ± 220 µM | kcat (purified protein [8]): 1.5 ± 0.1 s⁻¹ | kcat/Km (purified protein [8]): 1000 ± 150 M⁻¹ s⁻¹ | Km (purified protein [9]; [17]): 0.34 ± 0.03 µM | kcat (purified protein [9]; [17]): 2.1 ± 0.1 s⁻¹ | kcat/Km (purified protein [9]; [17]): 6e+06 ± 550000 M⁻¹ s⁻¹ | Km (purified protein [10]): 0.37 ± 0.06 µM | kcat (purified protein [10]): 1.9 ± 0.1 s⁻¹ | kcat/Km (purified protein [10]): 4.8e+06 ± 760000 M⁻¹ s⁻¹ | Km (purified protein [11]): 1.5 ± 0.1 µM | kcat (purified protein [11]): 3.9 ± 0.1 s⁻¹ | kcat/Km (purified protein [11]): 2.6e+06 ± 130000 M⁻¹ s⁻¹ | Km (purified protein [12]; [17]): 6.7 ± 0.8 µM | kcat (purified protein [12]; [17]): 2 ± 0.1 s⁻¹ | kcat/Km (purified protein [12]; [17]): 300000 ± 36000 M⁻¹ s⁻¹ | Km (purified protein [13]): 6.7 ± 1.3 µM | kcat (purified protein [13]): 1.5 ± 0.1 s⁻¹ | kcat/Km (purified protein [13]): 220000 ± 45000 M⁻¹ s⁻¹ | Km (purified protein [14]): 1.5 ± 0.2 µM | kcat (purified protein [14]): 2 ± 0.1 s⁻¹ | kcat/Km (purified protein [14]): 1.4e+06 ± 190000 M⁻¹ s⁻¹ | Km (purified protein [15]): 120 ± 11 µM | kcat (purified protein [15]): 4.3 ± 0.1 s⁻¹ | kcat/Km (purified protein [15]): 35000 ± 3200 M⁻¹ s⁻¹ | Km (purified protein [16]): 2400 ± 400 µM | kcat (purified protein [16]): 3.6 ± 0.2 s⁻¹ | kcat/Km (purified protein [16]): 1500 ± 300 M⁻¹ s⁻¹

B2: GSTACMO (Gordonia sp. TY-5) (protein)
chain: MSTTTLDAAVIGTGVAGLYELHMLREQGLEVRAYDKASGVGGTWYWNRYPGARFDSEAYIYQYLFDEDLYKGWSWSQRFPGQEEIERWLNYVADSLDLRRDISLETEITSAVFDEDRNRWTLTTADGDTIDAQFLITCCGMLSAPMKDLFPGQSDFGGQLVHTARWPKEGIDFAGKRVGVIGNGATGIQVIQSIAADVDELKVFIRTPQYALPMKNPSYGPDEVAWYKSRFGELKDTLPHTFTGFEYDFTDAWEDLTPEQRRARLEDDYENGSLKLWLASFAEIFSDEQVSEEVSEFVREKMRARLVDPELCDLLIPSDYGFGTHRVPLETNYLEVYHRDNVTAVLVRDNPITRIRENGIELADGTVHELDVIIMATGFDAGTGALTRIDIRGRDGRTLADDWSRDIRTTMGLMVHGYPNMLTTAVPLAPSAALCNMTTCLQQQTEWISEAIRHLRATGKTVIEPTAEGEEAWVAHHDELADANLISKTNSWYVGSNVPGKPRRVLSYVGGVGAYRDATLEAAAAGYKGFALS
notes: full-length with N-terminal GST tag kept (pGEX4T1), E. coli DH5alpha
Km (purified protein [16]): 2300 ± 380 µM | kcat (purified protein [16]): 2.8 ± 0.1 s⁻¹ | kcat/Km (purified protein [16]): 1200 ± 200 M⁻¹ s⁻¹

B3: ACMO (Gordonia sp. TY-5; H325K) (protein)
chain: MSTTTLDAAVIGTGVAGLYELHMLREQGLEVRAYDKASGVGGTWYWNRYPGARFDSEAYIYQYLFDEDLYKGWSWSQRFPGQEEIERWLNYVADSLDLRRDISLETEITSAVFDEDRNRWTLTTADGDTIDAQFLITCCGMLSAPMKDLFPGQSDFGGQLVHTARWPKEGIDFAGKRVGVIGNGATGIQVIQSIAADVDELKVFIRTPQYALPMKNPSYGPDEVAWYKSRFGELKDTLPHTFTGFEYDFTDAWEDLTPEQRRARLEDDYENGSLKLWLASFAEIFSDEQVSEEVSEFVREKMRARLVDPELCDLLIPSDYGFGTKRVPLETNYLEVYHRDNVTAVLVRDNPITRIRENGIELADGTVHELDVIIMATGFDAGTGALTRIDIRGRDGRTLADDWSRDIRTTMGLMVHGYPNMLTTAVPLAPSAALCNMTTCLQQQTEWISEAIRHLRATGKTVIEPTAEGEEAWVAHHDELADANLISKTNSWYVGSNVPGKPRRVLSYVGGVGAYRDATLEAAAAGYKGFALS
notes: as for B1
Km (purified protein [9]; [18]): 0.48 ± 0.05 µM | kcat (purified protein [9]; [18]): 1.6 ± 0.1 s⁻¹ | kcat/Km (purified protein [9]; [18]): 3.25e+06 ± 320000 M⁻¹ s⁻¹ | Km (purified protein [12]; [19]): 0.48 ± 0.05 µM | kcat (purified protein [12]; [19]): 1.6 ± 0.1 s⁻¹ | kcat/Km (purified protein [12]; [19]): 3.25e+06 ± 320000 M⁻¹ s⁻¹
